Measurements from US20230407373A1 (priority 2020, published 2023).

Test system: SARS-CoV-2 gRNA and sgRNAs
Format: binding
Settings: for target (unweighted spectral count in RNP capture): Probe II capture, LC-MS/MS LFQ; for background (unweighted spectral count in control): no-probe control pull-down, used as background for Probe II

B1: CAPRIN1 (protein, UniProt Q14444 2-709, looked up)
Caprin-1: PSATSHSGSGSKSSGPPPPSGSSGSEAAAGAGAAAPASQHPATGTGAVQTEAMKQILGVIDKKLRNLEKKKGKLDDYQERMNKGERLNQDQLDAVSKYQEVTNNLEFAKELQRSFMALSQDIQKTIKKTARREQLMREEAEQKRLKTVLELQYVLDKLGDDEVRTDLKQGLNGVPILSEEELSLLDEFYKLVDPERDMSLRLNEQYEHASIHLWDLLEGKEKPVCGTTYKVLKEIVERVFQSNYFDSTHNHQNGLCEEEEAASAPAVEDQVPEAEPEPAEEYTEQSEVESTEYVNRQFMAETQFTSGEKEQVDEWTVETVEVVNSLQQQPQAASPSVPEPHSLTPVAQADPLVRRQRVQDLMAQMQGPYNFIQDSMLDFENQTLDPAIVSAQPMNPTQNMDMPQLVCPPVHSESRLAQPNQVPVQPEATQVPLVSSTSEGYTASQPLYQPSHATEQRPQKEPIDQIQATISLNTDQTTASSSLPAASQPQVFQAGTSKPLHSSGINVNAAPFQSMQTVFNMNAPVPPVNEPETLKQQNQYQASYNQSFSSQPHQVEQTELQQEQLQTVVGTYHGSPDQSHQVTGNHQQPPQQNTGFPRSNQPYYNSRGVSRGGSRGARGLMNGYRGPANGFRGGYDGYRPSFSNTPNSGYTQSQFSAPRDYSGYQRDGYQQNFKRGSGQSGPRGAPRGRGGPPRPNRGMPQMNTQQVN
target (unweighted spectral count in RNP capture) ([…]): 10 | background (unweighted spectral count in control): 1

B2: FAM120C (protein, UniProt Q9NX05 1-1096, looked up)
Constitutive coactivator of …: MGVQGFQEFLEKRCPGAVVPVDLLKLARTVSRQQQQQHLHRQLPPTAALAPGAPRAARGSVPLQPPLPPAALGAYSGGAGPTRHHHPAHHFHHHGQAQPGLHPPLPPPPPPQLPGARVLVDAGSALPRLYGGYQTDWVCGGQWNAMLGYLSALCQACAYPGGDGLELVVMFPGGLGKDRLAEWGRRCQAERQTAQLIVGHVGNKGTPPPRAWFLPPACLSHCVRLALIRFRVKVFQSLEDHHLEVVAFFRENGFHGLLAHDSEYALYNIPSYYSSHALKLSWNGKNLTTNQFLMQEVAKQLGLKRMNFPIFAALLGNHILPDEDLAAFHWSLLGPEHPLASLKVRAHQLVLPPCDVVIKAVSEYVSSIKDPSNLDVVGKDVFKQSQSRTEDKIERFKKAVEYYSVTTKLSSLPVGPSFLGFRNNRLGNPPLPRNQVGTISAGKPMFSHQVPQKVKYPPPFPVGPNSSLLFSSHALGESHAFSEDPMLQNSPFANWAVSYDSSASQFPNYLPSKASPPLGPDSSHSSSSDGDEPNGASSDHITEAFHHQPEWGNPNRDRGSWAQPVDTGVSEASLGDGEPHIPSLLSMSTRNHMDITIPPLPPVAPEVLRVAEHRHRRGLMYPYIYHVLTKGEIKIPVCIEDECNMELPPAALLFRSARQYVYGVLFSLAETQRKMERLAMRRRLPVEVPSVILKEWSAYKGKSPQTPELVSALTFREWTCPNLKKLWLGKAVEDKNRRMRAFLACMKSDTPSMLNPANVPTHLLLMCCVLRYMVQWPGGRILHRHELDTFLAQAVSTQLYEPDRLQELKIEKLDARGIQLAALFMSGVDTALFANDACGQPVPWEHCCPWIYFDGKLFQSKLIKAGRERVSLVELCDGQADLATKVEKMRQSILEGVNMNHPPPSALLPSPTFVPPMVPSLYPVSLYSRAMGSMPLPPQGRSRGFAGLHPIPPQGGKLEIAGMVVGQWAGSRSSRGRGSFGMQVVSVGGPGKGHGKEQTGRGSKGHKKGNKQGSSDGVSKSLELHQGRSRSQVNGNSGALIKEEKSDHRLPAPSQCALSRDSNECNNGNRYLPMNNREKNHLQEQKLETVAQRKED
target (unweighted spectral count in RNP capture) ([…]): 14 | background (unweighted spectral count in control): 1

B3: NUFIP2 (protein, UniProt Q7Z417 1-695, looked up)
FMR1-interacting protein …: MEEKPGQPQPQHHHSHHHPHHHPQQQQQQPHHHHHYYFYNHSHNHHHHHHHQQPHQYLQHGAEGSPKAQPKPLKHEQKHTLQQHQETPKKKTGYGELNGNAGEREISLKNLSSDEATNPISRVLNGNQQVVDTSLKQTVKANTFGKAGIKTKNFIQKNSMDKKNGKSYENKSGENQSVDKSDTIPIPNGVVTNNSGYITNGYMGKGADNDGSGSESGYTTPKKRKARRNSAKGCENLNIVQDKIMQQETSVPTLKQGLETFKPDYSEQKGNRVDGSKPIWKYETGPGGTSRGKPAVGDMLRKSSDSKPGVSSKKFDDRPKGKHASAVASKEDSWTLFKPPPVFPVDNSSAKIVPKISYASKVKENLNKTIQNSSVSPTSSSSSSSSTGETQTQSSSRLSQVPMSALKSVTSANFSNGPVLAGTDGNVYPPGGQPLLTTAANTLTPISSGTDSVLQDMSLTSAAVEQIKTSLFIYPSNMQTMLLSTAQVDLPSQTDQQNLGDIFQNQWGLSFINEPSAGPETVTGKSSEHKVMEVTFQGEYPATLVSQGAEIIPSGTEHPVFPKAYELEKRTSPQVLGSILKSGTTSESGALSLEPSHIGDLQKADTSSQGALVFLSKDYEIESQNPLASPTNTLLGSAKEQRYQRGLERNDSWGSFDLRAAIVYHTKEMESIWNLQKQDPKRIITYNEAMDSPDQ
target (unweighted spectral count in RNP capture) ([…]): 10 | background (unweighted spectral count in control): 1

B4: HRNPR (protein, UniProt O43390 2-633, looked up)
Heterogeneous nuclear …: ANQVNGNAVQLKEEEEPMDTSSVTHTEHYKTLIEAGLPQKVAERLDEIFQTGLVAYVDLDERAIDALREFNEEGALSVLQQFKESDLSHVQNKSAFLCGVMKTYRQREKQGSKVQESTKGPDEAKIKALLERTGYTLDVTTGQRKYGGPPPDSVYSGVQPGIGTEVFVGKIPRDLYEDELVPLFEKAGPIWDLRLMMDPLSGQNRGYAFITFCGKEAAQEAVKLCDSYEIRPGKHLGVCISVANNRLFVGSIPKNKTKENILEEFSKVTEGLVDVILYHQPDDKKKNRGFCFLEYEDHKSAAQARRRLMSGKVKVWGNVVTVEWADPVEEPDPEVMAKVKVLFVRNLATTVTEEILEKSFSEFGKLERVKKLKDYAFVHFEDRGAAVKAMDEMNGKEIEGEEIEIVLAKPPDKKRKERQAARQASRSTAYEDYYYHPPPRMPPPIRGRGRGGGRGGYGYPPDYYGYEDYYDDYYGYDYHDYRGGYEDPYYGYDDGYAVRGRGGGRGGRGAPPPPRGRGAPPPRGRAGYSQRGAPLGPPRGSRGGRGGPAQQQRGRGSRGSRGNRGGNVGGKRKADGYNQPDSKRRQTNNQQNWGSQPIAQQPLQQGGDYSGNYGYNNDNQEFYQDTYGQQWK
target (unweighted spectral count in RNP capture) ([…]): 32 | background (unweighted spectral count in control): 1

B5: DOX3X (protein, UniProt O00571 2-662, looked up)
ATP-dependent RNA helicase …: SHVAVENALGLDQQFAGLDLNSSDNQSGGSTASKGRYIPPHLRNREATKGFYDKDSSGWSSSKDKDAYSSFGSRSDSRGKSSFFSDRGSGSRGRFDDRGRSDYDGIGSRGDRSGFGKFERGGNSRWCDKSDEDDWSKPLPPSERLEQELFSGGNTGINFEKYDDIPVEATGNNCPPHIESFSDVEMGEIIMGNIELTRYTRPTPVQKHAIPIIKEKRDLMACAQTGSGKTAAFLLPILSQIYSDGPGEALRAMKENGRYGRRKQYPISLVLAPTRELAVQIYEEARKFSYRSRVRPCVVYGGADIGQQIRDLERGCHLLVATPGRLVDMMERGKIGLDFCKYLVLDEADRMLDMGFEPQIRRIVEQDTMPPKGVRHTMMFSATFPKEIQMLARDFLDEYIFLAVGRVGSTSENITQKVVWVEESDKRSFLLDLLNATGKDSLTLVFVETKKGADSLEDFLYHEGYACTSIHGDRSQRDREEALHQFRSGKSPILVATAVAARGLDISNVKHVINFDLPSDIEEYVHRIGRTGRVGNLGLATSFFNERNINITKDLLDLLVEAKQEVPSWLENMAYEHHYKGSSRGRSKSSRFSGGFGARDYRQSSGASSSSFSSSRASSSRSGGGGHGSSRGFGGGGYGGFYNSDGYGGNYNSQGVDWWGN
target (unweighted spectral count in RNP capture) ([…]): 49 | background (unweighted spectral count in control): 1

B6: BICC1 (protein, UniProt Q9H694 1-974, looked up)
Protein bicaudal C homolog 1: MAAQGEPGYLAAQSDPGSNSERSTDSPVPGSEDDLVAGATLHSPEWSEERFRVDRKKLEAMLQAAAEGKGRSGEDFFQKIMEETNTQIAWPSKLKIGAKSKKDPHIKVSGKKEDVKEAKEMIMSVLDTKSNRVTLKMDVSHTEHSHVIGKGGNNIKKVMEETGCHIHFPDSNRNNQAEKSNQVSIAGQPAGVESARVRIRELLPLVLMFELPIAGILQPVPDPNSPSIQHISQTYNISVSFKQRSRMYGATVIVRGSQNNTSAVKEGTAMLLEHLAGSLASAIPVSTQLDIAAQHHLFMMGRNGSNIKHIMQRTGAQIHFPDPSNPQKKSTVYLQGTIESVCLARQYLMGCLPLVLMFDMKEEIEVDPQFIAQLMEQLDVFISIKPKPKQPSKSVIVKSVERNALNMYEARKCLLGLESSGVTIATSPSPASCPAGLACPSLDILASAGLGLTGLGLLGPTTLSLNTSTTPNSLLNALNSSVSPLQSPSSGTPSPTLWAPPLANTSSATGFSAIPHLMIPSTAQATLTNILLSGVPTYGHTAPSPPPGLTPVDVHINSMQTEGKKISAALNGHAQSPDIKYGAISTSSLGEKVLSANHGDPSIQTSGSEQTSPKSSPTEGCNDAFVEVGMPRSPSHSGNAGDLKQMMCPSKVSCAKRQTVELLQGTKNSHLHSTDRLLSDPELSATESPLADKKAPGSERAAERAAAAQQNSERAHLAPRSSYVNMQAFDYEQKKLLATKAMLKKPVVTEVRTPTNTWSGLGFSKSMPAETIKELRRANHVSYKPTMTTTYEGSSMSLSRSNSREHLGGGSESDNWRDRNGIGPGSHSEFAASIGSPKRKQNKSTEHYLSSSNYMDCISSLTGSNGCNLNSSFKGSDLPELFSKLGLGKYTDVFQQQEIDLQTFLTLTDQDLKELGITTFGARRKMLLAISELNKNRRKLFESPNARTSFLEGGASGRLPRQYHSDIASVSGRW
target (unweighted spectral count in RNP capture) ([…]): 11 | background (unweighted spectral count in control): 1

B7: CRIP2 (protein, UniProt P52943 1-208, looked up)
Cysteine-rich protein 2: MASKCPKCDKTVYFAEKVSSLGKDWHKFCLKCERCSKTLTPGGHAEHDGKPFCHKPCYATLFGPKGVNIGGAGSYIYEKPLAEGPQVTGPIEVPAARAEERKASGPPKGPSRASSVTTFTGEPNTCPRCSKKVYFAEKVTSLGKDWHRPCLRCERCGKTLTPGGHAEHDGQPYCHKPCYGILFGPKGVNTGAVGSYIYDRDPEGKVQP
target (unweighted spectral count of the protein in the RNP capture experiment) ([…], LC-MS/MS label-free quantification, probe pool not given): 6 | back-ground (unweighted spectral count of the protein in the control experiment) (protein background of the control (e.g. no-probe) experiment, […]): 1
